The experiment has as its target T1, CD206 on M2 macrophages derived from primary human PBMC (human (macrophages derived from primary …, UniProt P22897 19-1456)).
T1 sequence (looked up): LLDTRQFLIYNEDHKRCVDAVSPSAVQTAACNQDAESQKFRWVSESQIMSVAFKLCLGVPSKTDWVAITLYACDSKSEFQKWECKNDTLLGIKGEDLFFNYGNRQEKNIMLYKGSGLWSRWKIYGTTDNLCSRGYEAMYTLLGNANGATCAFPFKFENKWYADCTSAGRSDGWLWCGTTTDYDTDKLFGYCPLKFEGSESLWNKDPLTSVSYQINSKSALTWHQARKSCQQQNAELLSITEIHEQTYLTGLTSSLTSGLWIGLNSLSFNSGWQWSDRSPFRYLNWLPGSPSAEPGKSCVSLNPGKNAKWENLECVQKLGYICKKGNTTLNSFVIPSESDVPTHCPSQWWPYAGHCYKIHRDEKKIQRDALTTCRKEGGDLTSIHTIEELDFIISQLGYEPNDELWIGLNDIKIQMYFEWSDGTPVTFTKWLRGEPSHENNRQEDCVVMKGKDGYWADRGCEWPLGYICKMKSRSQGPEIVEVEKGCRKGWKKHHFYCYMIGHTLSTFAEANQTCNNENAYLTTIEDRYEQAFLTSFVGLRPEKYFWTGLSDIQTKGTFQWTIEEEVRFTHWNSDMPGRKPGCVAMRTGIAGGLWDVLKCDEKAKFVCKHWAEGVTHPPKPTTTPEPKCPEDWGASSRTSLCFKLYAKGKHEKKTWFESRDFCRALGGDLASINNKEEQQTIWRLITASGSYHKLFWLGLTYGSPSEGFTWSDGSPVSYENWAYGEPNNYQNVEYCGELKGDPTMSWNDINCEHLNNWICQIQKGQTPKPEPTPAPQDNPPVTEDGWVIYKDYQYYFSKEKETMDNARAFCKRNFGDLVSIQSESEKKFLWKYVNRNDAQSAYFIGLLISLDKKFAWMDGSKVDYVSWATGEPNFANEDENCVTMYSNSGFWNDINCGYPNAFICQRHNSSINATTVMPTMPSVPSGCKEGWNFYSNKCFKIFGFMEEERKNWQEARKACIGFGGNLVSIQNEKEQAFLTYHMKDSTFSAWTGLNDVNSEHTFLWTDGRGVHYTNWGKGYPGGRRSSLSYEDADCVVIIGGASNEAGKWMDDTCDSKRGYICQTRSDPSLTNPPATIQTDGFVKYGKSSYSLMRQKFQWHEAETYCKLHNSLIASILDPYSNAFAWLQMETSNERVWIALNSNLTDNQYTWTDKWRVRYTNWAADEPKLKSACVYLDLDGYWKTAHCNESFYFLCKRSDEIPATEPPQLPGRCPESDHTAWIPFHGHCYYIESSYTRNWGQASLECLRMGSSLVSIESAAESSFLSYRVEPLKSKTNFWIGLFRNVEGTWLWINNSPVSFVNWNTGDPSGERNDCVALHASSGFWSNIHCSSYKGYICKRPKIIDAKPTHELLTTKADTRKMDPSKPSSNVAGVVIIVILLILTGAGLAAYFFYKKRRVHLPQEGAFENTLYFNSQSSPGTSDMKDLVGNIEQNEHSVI
Kind of experiment: cell-based or functional assay.

B1: anti-CD206 VHH targeting moiety (aCD206 VHH), as DSPE-PEG2k-anti-CD206 VHH conjugate inserted into LNPs (VHH)
VHH: QVQLQESGGGLVQAGGSLRLSCAASGFTDDDYDIGWFRQAPGKEREGVSCISSSDGSTYYADSVKGRFTISSDNAKNTVYLQMNSLKPEDTAVYYCAADFFRWDSGSYYVRGCRHATYDYWGQGTQVTVSS
modifications: DSPE-PEG(2k)-maleimide covalently coupled to the thiol of a C-terminal cysteine residue
Consider B1, for which the “GFP protein expression (MFI of transfected macrophages), fold difference between non-targeted and aCD206 targeted LNPs; Lipid 19A” value amounted to 11 fold; the “GFP protein expression (MFI of transfected macrophages), fold difference between non-targeted and aCD206 targeted LNPs; Lipids 15 and 46” value was 2 fold.

These data come from US20250205169A1 (TIDAL THERAPEUTICS, published 2025).
